Test results as given in US20170369592A1, “NOVEL ANTI-FIBROBLAST ACTIVATION PROTEIN (FAP) ANTIBODIES AND USES DERIVED THEREOF” (Mabimmune Diagnostics AG, priority 2015, published 2017).

Molecular target: directly coated FAP peptides mixture (cFAP)
Assay: Direct ELISA, mixture of FAP-specific peptides directly coated
Format: binding, human
Settings: non-linear regression
Procedure: ELISA assays were performed with varying antibody concentrations to validate the binding of the exemplary antibodies of the present invention to FAP and to be able to determine their half maximal effective concentration (EC50). For the exemplary recombinant human NI-206.82C2, NI-206.59B4, NI-206.22F7, NI-206.27E8, NI-206.12G4 and NI-206.17A6 antibodies, 96-well microplates (Costar, Corning, USA) were coated with FAP, with a mixture of the 3 peptides or with BSA (Sigma-Aldrich, Buchs, Switzerland) diluted to a concentration of 5 μg/ml in carbonate ELISA coating buffer (15 mM Na2CO3, 35 mM NaHCO3, pH 9.4) for the direct ELISA. For the capture ELISA, the microplates were coated with mouse anti-His monoclonal antibody (Clontech) diluted to a concentration of 3 μg/ml in PBS, the plates were then blocked, FAP or BSA were diluted to a concentration of 2 μg/ml in PBS and added to the plates to be captured. The binding efficiency of the antibodies was then tested. The exemplary NI-206.82C2 antibody specifically and strongly binds to the captured FAP and less efficiently to the directly coated FAP. The exemplary NI-206.59B4 antibody specifically, strongly and similarly binds to the captured FAP and to the directly coated FAP.
The EC50 values were estimated by a non-linear regression using GraphPad Prism (San Diego, USA) software. […] The binding of NI-206.12G4 towards sFAP was not tested.

B1: NI-206.82C2: recombinant human memory B cell-derived monoclonal anti-FAP IgG1 antibody, variable regions in FIG. 1A, FAP inhibitory (antibody, V domains shown)
VH: QVQLQQSGPGLVKPSQTLSLTCAISGDSVSSNSVTWNWIRQSPSRGLEWLGRTYYRSKWYNDYAVSVKGRITINPDTSKNQFYLQLKSVTPEDAAVYYCARDSSILYGDYWGQGTLVTVSS
VL: QAVLTQPSSLSASPGASASLTCTLPSGINVGTYRIFWFQQKPGSPPQYLLSYKSDSDNHQGSGVPSRFSGSKDASANAGILLISGLQSEDEADYYCMIWHSSAWVFGGGTKLTVL
EC50, binding to directly coated FAP peptides mixture (cFAP): did not show any binding
